Reference: US20200206198A1, “CFTR CHANNEL ACTIVATOR FOR USE IN THE TREATMENT AND/OR PREVENTION OF GLUTEN SENSITIVITY CONDITIONS” (priority 2017, published 2020)

Target: T1, PM-associated CFTR (Homo sapiens, UniProt P13569)
T1 construct: Immunoprecipitations of endogenous proteins were performed on 500 μg of lysates from Caco-2 cells; host or cells: Caco-2, T84
Assay: CFTR plasma membrane disposal in Caco-2 cells (membrane fractions)
Assay type: cell-based
Description: Human colon adenocarcinoma-derived Caco-2 and T84 cells were obtained from the ATCC. Cells were maintained in T25 flask in Modified Eagle Medium (MEM) for Caco-2, or Ham's F12+DMEM (1:1) for T84, supplemented with 10% fetal bovine serum (FBS), 2 mM Glutamine+1% Non Essential Amino Acids (NEAA) and the antibiotics penicillin\streptomycin (100 units/ml) (all reagents from Lonza) (Luciani, A., et al. 2010. Cells were grown in Transwells (Corning, 3470 or 3460) under the normal condition (Luciani, A., et al. 2012). Briefly, 8×10^4 or 5×10^5 cells were seeded in 6.5-mm diameter or 12-mm diameter, respectively, and grown until the RT reached 800 to 1,200 Ω·cm2. Transwells with a pore size of 0.4 μm were used. Medium in both the apical and basolateral chambers was changed every other day. Cells were treated with 20 μg/ml of either α-gliadin peptide P31-43 or […] or scrambled PGAV or modified P31-43 either biotin-tagged or not, for different time point (from 1 h short challenge up to 24 h). Cells were also treated with 50 or 100 μg/ml of P57-68 or PGAV peptides for 3 h. Caco-2 or T84 cells were also treated with: CFTR potentiators VX-770 (10 μM) or VX-532 (20 μM) (Selleck chemicals) or Genistein (10 μM) (Sigma-Aldrich) or in presence or absence of CFTR inhibitor172 (CFTRinh172, 20 μM) or 3-methyl-adenine (3-MA, 20 μM) (Calbiochem), Z-DON (20 nM, Zedira) or BAPTA-AM (10 μM, Calbiochem).
The whole lysate or membrane fraction proteins of cell lines and mice intestine homogenates were obtained from treated and untreated cells or mice as described. The equal amount of protein were resolved by SDS-PAGE gel and blotted with antibodies against: SQSTM1, (Sigma Aldrich, 108k4767) 1:1000, PPARγ (Santa Cruz Biotechnology, sc7273) 1:500, BECN1 (Abcam, ab58878) 1:1000, CFTR clone M3A7 (Abcam, ab4067) 1:500, phospho-ERK1/2 (php42/44, Cell Signaling Technology, #91101) 1:1000, UVRAG (Santa Cruz Biotechnology sc8215) 1:1000, NHERF-1 (BD, 611161) 1:1000, EZRIN (BD, 610603) 1:1000, hVps34 (SigmaV9764) 1:300, biotin (Abcam, ab1227) 1:2000, PKAr2a (BD, 610625) 1:500, Ubiquitin (Cell Signaling clone P4D1, #3936) 1:1000, CHIP (Calbiochem PC711) 1:500, Caspase-1 p10 (M-20) (Santa Cruz Biotechnology, sc-514) 1:200, NLRP3 (Abcam, ab4207), 1:500, IDO1 (monoclonal; cv152) 1:1000^[80], used as primary antibodies. Normalization was performed by probing the membrane with anti-β-actin (Cell Signaling, #4970) 1:1000, anti-Gapdh (Sigma-Aldrich, G8795) 1:1000 and anti-flottilin (Abcam ab15148) 1:1000 antibodies. Immunoprecipitations of endogenous proteins were performed on 500 μg of lysates from Caco-2 cells. The proteins were incubated for 12-18 h at 4° C. with 10 ug\ml of specific antibody followed by the addition of Protein A/G-agarose beads for 4 h at 4° C. The beads were then washed three times with lysis buffer and Laemmli's sample buffer was added to the samples. The membranes were then blotted with: CFTR clone CF3 (Abcam, ab2784) 1:1000, TG2 (clone CUB7402; NeoMarkers) 1:1000, CHIP (Calbiochem PC711) 1:500, Ubiquitin (Cell Signaling clone P4D1 3936), isopeptide (Abcam 422) 1:1000, PKAR2 (BD 610625) 1:500.
Protein from membrane fractionation were obtained as described. Cells were homogenized with a PotterElvehjem pestle and centrifuged at 2300×g for 15 min at 4° C. […]

T1 sequence (P13569 whole entry): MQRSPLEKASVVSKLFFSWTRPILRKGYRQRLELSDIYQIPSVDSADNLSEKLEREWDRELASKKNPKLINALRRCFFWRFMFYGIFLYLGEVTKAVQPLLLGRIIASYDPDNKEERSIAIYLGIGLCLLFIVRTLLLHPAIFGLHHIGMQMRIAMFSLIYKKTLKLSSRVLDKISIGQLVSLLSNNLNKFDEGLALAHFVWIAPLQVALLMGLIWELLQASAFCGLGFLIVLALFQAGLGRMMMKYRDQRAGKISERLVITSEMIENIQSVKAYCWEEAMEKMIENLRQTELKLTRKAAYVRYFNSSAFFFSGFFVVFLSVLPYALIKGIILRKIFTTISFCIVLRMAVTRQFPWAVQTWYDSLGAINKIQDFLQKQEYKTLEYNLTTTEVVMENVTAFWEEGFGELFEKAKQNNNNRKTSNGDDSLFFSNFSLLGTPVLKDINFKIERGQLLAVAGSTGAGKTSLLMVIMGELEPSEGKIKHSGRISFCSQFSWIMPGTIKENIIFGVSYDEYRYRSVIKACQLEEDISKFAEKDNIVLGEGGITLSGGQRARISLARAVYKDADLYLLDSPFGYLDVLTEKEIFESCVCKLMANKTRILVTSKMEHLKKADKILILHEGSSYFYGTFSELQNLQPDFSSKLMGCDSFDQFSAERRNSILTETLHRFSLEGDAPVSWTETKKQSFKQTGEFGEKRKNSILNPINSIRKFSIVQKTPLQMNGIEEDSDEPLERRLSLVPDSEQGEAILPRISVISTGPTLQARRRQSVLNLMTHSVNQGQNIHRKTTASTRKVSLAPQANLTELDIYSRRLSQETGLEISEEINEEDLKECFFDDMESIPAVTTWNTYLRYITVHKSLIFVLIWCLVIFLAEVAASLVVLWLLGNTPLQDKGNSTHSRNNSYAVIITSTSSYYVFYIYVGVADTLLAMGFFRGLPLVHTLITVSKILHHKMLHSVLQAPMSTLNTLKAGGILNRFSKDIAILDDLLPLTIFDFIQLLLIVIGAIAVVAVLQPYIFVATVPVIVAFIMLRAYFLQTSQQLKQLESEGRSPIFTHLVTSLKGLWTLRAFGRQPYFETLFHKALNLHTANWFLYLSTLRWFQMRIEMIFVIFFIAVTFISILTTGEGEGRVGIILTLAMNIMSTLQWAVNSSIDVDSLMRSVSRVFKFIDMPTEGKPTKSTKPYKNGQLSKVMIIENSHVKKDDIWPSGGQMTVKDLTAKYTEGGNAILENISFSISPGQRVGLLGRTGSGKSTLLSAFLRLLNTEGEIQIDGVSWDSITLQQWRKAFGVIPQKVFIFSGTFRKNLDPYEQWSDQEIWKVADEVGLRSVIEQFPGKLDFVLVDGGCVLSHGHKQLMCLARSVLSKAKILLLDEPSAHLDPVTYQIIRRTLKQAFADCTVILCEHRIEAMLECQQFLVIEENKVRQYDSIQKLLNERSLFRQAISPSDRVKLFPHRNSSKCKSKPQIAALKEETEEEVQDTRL

Molecule | CHIP-mediated CFTR ubiquitilation | abundance of plasma membrane-associated SQSTM1/p62 | overall abundance of PM-associated CFTR (after 24 h of challenge) | effect on P31-43-induced reduction of PM-associated CFTR
α-gliadin peptide LGQQQPFPPQQPY (SEQ ID 1), induces an enterocyte stress response (P31-43 sequence of alpha-gliadin) | promoted | increased the abundance | reduction of the overall abundance of PM-associated CFTR | 
CC(C)(C)c1cc(C(C)(C)C)c(NC(=O)c2c[nH]c3ccccc3c2=O)cc1O [VX-770, N-(2,4-di-tert-butyl-5-hydroxyphenyl)-4-oxo-1,4-dihydroquinoline-3-carboxamide] |  |  |  | counteracted
